The values that follow come from patent US20230220021A1 (UNIVERSITY OF COPENHAGEN, published 2023).

[ ]: non-standard residue; d: D form.

Broadly, the Ki is the equilibrium dissociation constant of an inhibitor or competing ligand from its target. A higher Ki goes with weaker binding.

B1: cyclic nNOS β-hairpin peptide T119N (peptide)
peptide: cyclo(THLETTFTGDGTPKNIRVTQ[dP]GQ)
SMILES: CC[C@H](C)[C@@H]1NC(=O)[C@H](CC(N)=O)NC(=O)[C@H](CCCCN)NC(=O)[C@@H]2CCCN2C(=O)[C@H]([C@@H](C)O)NC(=O)CNC(=O)[C@H](CC(=O)O)NC(=O)CNC(=O)[C@H]([C@@H](C)O)NC(=O)[C@H](Cc2ccccc2)NC(=O)[C@H]([C@@H](C)O)NC(=O)[C@H]([C@@H](C)O)NC(=O)[C@H](CCC(=O)O)NC(=O)[C@H](CC(C)C)NC(=O)[C@H](Cc2c[nH]cn2)NC(=O)[C@H]([C@@H](C)O)NC(=O)[C@H](CCC(N)=O)NC(=O)CNC(=O)[C@H]2CCCN2C(=O)[C@H](CCC(N)=O)NC(=O)[C@H]([C@@H](C)O)NC(=O)[C@H](C(C)C)NC(=O)[C@H](CCCNC(=N)N)NC1=O
B2: cyclic nNOS β-hairpin peptide V122Y (peptide)
peptide: cyclo(THLETTFTGDGTPKTIRYTQ[dP]GQ)
SMILES: CC[C@H](C)[C@@H]1NC(=O)[C@H]([C@@H](C)O)NC(=O)[C@H](CCCCN)NC(=O)[C@@H]2CCCN2C(=O)[C@H]([C@@H](C)O)NC(=O)CNC(=O)[C@H](CC(=O)O)NC(=O)CNC(=O)[C@H]([C@@H](C)O)NC(=O)[C@H](Cc2ccccc2)NC(=O)[C@H]([C@@H](C)O)NC(=O)[C@H]([C@@H](C)O)NC(=O)[C@H](CCC(=O)O)NC(=O)[C@H](CC(C)C)NC(=O)[C@H](Cc2c[nH]cn2)NC(=O)[C@H]([C@@H](C)O)NC(=O)[C@H](CCC(N)=O)NC(=O)CNC(=O)[C@H]2CCCN2C(=O)[C@H](CCC(N)=O)NC(=O)[C@H]([C@@H](C)O)NC(=O)[C@H](Cc2ccc(O)cc2)NC(=O)[C@H](CCCNC(=N)N)NC1=O
B3: cyclic nNOS β-hairpin peptide T123F (peptide)
peptide: cyclo(THLETTFTGDGTPKTIRVFQ[dP]GQ)
SMILES: CC[C@H](C)[C@@H]1NC(=O)[C@H]([C@@H](C)O)NC(=O)[C@H](CCCCN)NC(=O)[C@@H]2CCCN2C(=O)[C@H]([C@@H](C)O)NC(=O)CNC(=O)[C@H](CC(=O)O)NC(=O)CNC(=O)[C@H]([C@@H](C)O)NC(=O)[C@H](Cc2ccccc2)NC(=O)[C@H]([C@@H](C)O)NC(=O)[C@H]([C@@H](C)O)NC(=O)[C@H](CCC(=O)O)NC(=O)[C@H](CC(C)C)NC(=O)[C@H](Cc2c[nH]cn2)NC(=O)[C@H]([C@@H](C)O)NC(=O)[C@H](CCC(N)=O)NC(=O)CNC(=O)[C@H]2CCCN2C(=O)[C@H](CCC(N)=O)NC(=O)[C@H](Cc2ccccc2)NC(=O)[C@H](C(C)C)NC(=O)[C@H](CCCNC(=N)N)NC1=O
B4: cyclic nNOS β-hairpin peptide T119S (peptide)
peptide: cyclo(THLETTFTGDGTPKSIRVTQ[dP]GQ)
SMILES: CC[C@H](C)[C@@H]1NC(=O)[C@H](CO)NC(=O)[C@H](CCCCN)NC(=O)[C@@H]2CCCN2C(=O)[C@H]([C@@H](C)O)NC(=O)CNC(=O)[C@H](CC(=O)O)NC(=O)CNC(=O)[C@H]([C@@H](C)O)NC(=O)[C@H](Cc2ccccc2)NC(=O)[C@H]([C@@H](C)O)NC(=O)[C@H]([C@@H](C)O)NC(=O)[C@H](CCC(=O)O)NC(=O)[C@H](CC(C)C)NC(=O)[C@H](Cc2c[nH]cn2)NC(=O)[C@H]([C@@H](C)O)NC(=O)[C@H](CCC(N)=O)NC(=O)CNC(=O)[C@H]2CCCN2C(=O)[C@H](CCC(N)=O)NC(=O)[C@H]([C@@H](C)O)NC(=O)[C@H](C(C)C)NC(=O)[C@H](CCCNC(=N)N)NC1=O
B5: cyclic nNOS β-hairpin peptide T123Y (peptide)
peptide: cyclo(THLETTFTGDGTPKTIRVYQ[dP]GQ)
SMILES: CC[C@H](C)[C@@H]1NC(=O)[C@H]([C@@H](C)O)NC(=O)[C@H](CCCCN)NC(=O)[C@@H]2CCCN2C(=O)[C@H]([C@@H](C)O)NC(=O)CNC(=O)[C@H](CC(=O)O)NC(=O)CNC(=O)[C@H]([C@@H](C)O)NC(=O)[C@H](Cc2ccccc2)NC(=O)[C@H]([C@@H](C)O)NC(=O)[C@H]([C@@H](C)O)NC(=O)[C@H](CCC(=O)O)NC(=O)[C@H](CC(C)C)NC(=O)[C@H](Cc2c[nH]cn2)NC(=O)[C@H]([C@@H](C)O)NC(=O)[C@H](CCC(N)=O)NC(=O)CNC(=O)[C@H]2CCCN2C(=O)[C@H](CCC(N)=O)NC(=O)[C@H](Cc2ccc(O)cc2)NC(=O)[C@H](C(C)C)NC(=O)[C@H](CCCNC(=N)N)NC1=O
B6: cyclic nNOS β-hairpin peptide V122R (peptide)
peptide: cyclo(THLETTFTGDGTPKTIRRTQ[dP]GQ)
SMILES: CC[C@H](C)[C@@H]1NC(=O)[C@H]([C@@H](C)O)NC(=O)[C@H](CCCCN)NC(=O)[C@@H]2CCCN2C(=O)[C@H]([C@@H](C)O)NC(=O)CNC(=O)[C@H](CC(=O)O)NC(=O)CNC(=O)[C@H]([C@@H](C)O)NC(=O)[C@H](Cc2ccccc2)NC(=O)[C@H]([C@@H](C)O)NC(=O)[C@H]([C@@H](C)O)NC(=O)[C@H](CCC(=O)O)NC(=O)[C@H](CC(C)C)NC(=O)[C@H](Cc2c[nH]cn2)NC(=O)[C@H]([C@@H](C)O)NC(=O)[C@H](CCC(N)=O)NC(=O)CNC(=O)[C@H]2CCCN2C(=O)[C@H](CCC(N)=O)NC(=O)[C@H]([C@@H](C)O)NC(=O)[C@H](CCCNC(=N)N)NC(=O)[C@H](CCCNC(=N)N)NC1=O
B7: cyclic nNOS β-hairpin peptide V122F (peptide)
peptide: cyclo(THLETTFTGDGTPKTIRFTQ[dP]GQ)
SMILES: CC[C@H](C)[C@@H]1NC(=O)[C@H]([C@@H](C)O)NC(=O)[C@H](CCCCN)NC(=O)[C@@H]2CCCN2C(=O)[C@H]([C@@H](C)O)NC(=O)CNC(=O)[C@H](CC(=O)O)NC(=O)CNC(=O)[C@H]([C@@H](C)O)NC(=O)[C@H](Cc2ccccc2)NC(=O)[C@H]([C@@H](C)O)NC(=O)[C@H]([C@@H](C)O)NC(=O)[C@H](CCC(=O)O)NC(=O)[C@H](CC(C)C)NC(=O)[C@H](Cc2c[nH]cn2)NC(=O)[C@H]([C@@H](C)O)NC(=O)[C@H](CCC(N)=O)NC(=O)CNC(=O)[C@H]2CCCN2C(=O)[C@H](CCC(N)=O)NC(=O)[C@H]([C@@H](C)O)NC(=O)[C@H](Cc2ccccc2)NC(=O)[C@H](CCCNC(=N)N)NC1=O
B8: cyclic nNOS β-hairpin peptide T123R (peptide)
peptide: cyclo(THLETTFTGDGTPKTIRVRQ[dP]GQ)
SMILES: CC[C@H](C)[C@@H]1NC(=O)[C@H]([C@@H](C)O)NC(=O)[C@H](CCCCN)NC(=O)[C@@H]2CCCN2C(=O)[C@H]([C@@H](C)O)NC(=O)CNC(=O)[C@H](CC(=O)O)NC(=O)CNC(=O)[C@H]([C@@H](C)O)NC(=O)[C@H](Cc2ccccc2)NC(=O)[C@H]([C@@H](C)O)NC(=O)[C@H]([C@@H](C)O)NC(=O)[C@H](CCC(=O)O)NC(=O)[C@H](CC(C)C)NC(=O)[C@H](Cc2c[nH]cn2)NC(=O)[C@H]([C@@H](C)O)NC(=O)[C@H](CCC(N)=O)NC(=O)CNC(=O)[C@H]2CCCN2C(=O)[C@H](CCC(N)=O)NC(=O)[C@H](CCCNC(=N)N)NC(=O)[C@H](C(C)C)NC(=O)[C@H](CCCNC(=N)N)NC1=O

For this assay, the target named is T1, (7× His)-PSD-95-PDZ2 wild type (UniProt P78352 160-246).
T1 construct: domain: PDZ2; recombinant from E. coli; also called PSD-95-PDZ2 WT; not shown: 7x His tag
T1 sequence (P78352 160-246): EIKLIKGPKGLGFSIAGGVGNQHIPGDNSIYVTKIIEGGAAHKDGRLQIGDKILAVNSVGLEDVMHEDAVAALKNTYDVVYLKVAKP
The experiment in a line: FP competition.
For the molecule B1, the Ki came to 18900 nM and the “Relative Ki (Ki mut/Ki WT)” value was determined as 12.6.

On to B2, for which the inhibition constant (Ki) stood at 1270 nM and the “Relative Ki (Ki mut/Ki WT)” value amounted to 0.85.

As to B3, the inhibitory constant (Ki) was determined as 1580 nM and the “Relative Ki (Ki mut/Ki WT)” value was found to be 1.05.

Regarding B4, affinity was put at a Ki of 7190 nM and the “Relative Ki (Ki mut/Ki WT)” value came to 4.79.

As to B5, the Ki came out at 1870 nM and the “Relative Ki (Ki mut/Ki WT)” value stood at 1.25.

For B6, the affinity corresponds to a Ki of 1690 nM and the “Relative Ki (Ki mut/Ki WT)” value stood at 1.13.

As to B7, the affinity corresponds to a Ki of 1340 nM and the “Relative Ki (Ki mut/Ki WT)” value is 0.89.

For B8, the Ki came to 1590 nM and the “Relative Ki (Ki mut/Ki WT)” value came to 1.06.
